The values that follow come from patent publication US20240132624A1 (Ablynx, published 2024).

As usually defined, the koff is the rate constant with which the complex falls apart.

The labels stand for the following.
B1: T0263018B11 W100cM (VHH, name in Kabat numbering)
VHH: EVQLVESGGGVVQPGGSLRLSCAASGFTFSSYAMYWVRQAPGKGLEWVSAISSGGGSTDYADSVKGRFTISRDNSKNTLYLQMNSLRPEDTALYYCAADTLYTSLTMYSYWGQGTLVTVSS
notes: FLAG3-His6 tagged
B2: T0263018B11 S31G (VHH, name in Kabat numbering)
VHH: B1 VHH with S31G, M107W
notes: FLAG3-His6 tagged
B3: T0263018B11 W100cE (VHH, name in Kabat numbering)
VHH: B1 VHH with M107E
notes: FLAG3-His6 tagged
B4: T0263018B11 T57Q (VHH, name in Kabat numbering)
VHH: B1 VHH with T58Q, M107W
notes: FLAG3-His6 tagged
B5: T0263018B11 D58T (VHH, name in Kabat numbering)
VHH: B1 VHH with D59T, M107W
notes: FLAG3-His6 tagged
B6: T0263018B11 S30P (VHH, name in Kabat numbering)
VHH: B1 VHH with S30P, M107W
notes: FLAG3-His6 tagged
B7: T0263018B11 Y98W (VHH, name in Kabat numbering)
VHH: B1 VHH with Y102W, M107W
notes: FLAG3-His6 tagged
B8: T0263018B11 F29Y (VHH, name in Kabat numbering)
VHH: B1 VHH with F29Y, M107W
notes: FLAG3-His6 tagged
B9: T0263018B11 S56G (VHH, name in Kabat numbering)
VHH: B1 VHH with S57G, M107W
notes: FLAG3-His6 tagged
B10: T0263018B11 G26A (VHH, name in Kabat numbering)
VHH: B1 VHH with G26A, M107W
notes: FLAG3-His6 tagged
B11: T0263018B11 F27M (VHH, name in Kabat numbering)
VHH: B1 VHH with F27M, M107W
notes: FLAG3-His6 tagged
B12: T0263018B11 T57H (VHH, name in Kabat numbering)
VHH: B1 VHH with T58H, M107W
notes: FLAG3-His6 tagged
B13: T0263018B11 G54D (VHH, name in Kabat numbering)
VHH: B1 VHH with G55D, M107W
notes: FLAG3-His6 tagged
B14: T0263018B11 T57K (VHH, name in Kabat numbering)
VHH: B1 VHH with T58K, M107W
notes: FLAG3-His6 tagged
B15: T0263018B11 G54T (VHH, name in Kabat numbering)
VHH: B1 VHH with G55T, M107W
notes: FLAG3-His6 tagged
B16: T0263018B11 T57A (VHH, name in Kabat numbering)
VHH: B1 VHH with T58A, M107W
notes: FLAG3-His6 tagged
B17: T0263018B11 L100aV (VHH, name in Kabat numbering)
VHH: B1 VHH with L105V, M107W
notes: FLAG3-His6 tagged
B18: T0263018B11 Y98L (VHH, name in Kabat numbering)
VHH: B1 VHH with Y102L, M107W
notes: FLAG3-His6 tagged
B19: T0263018B11 D58S (VHH, name in Kabat numbering)
VHH: B1 VHH with D59S, M107W
notes: FLAG3-His6 tagged
B20: T0263018B11 T28S (VHH, name in Kabat numbering)
VHH: B1 VHH with T28S, M107W
notes: FLAG3-His6 tagged
B21: T0263018B11 T28M (VHH, name in Kabat numbering)
VHH: B1 VHH with T28M, M107W
notes: FLAG3-His6 tagged
B22: T0263018B11 Y32A (VHH, name in Kabat numbering)
VHH: B1 VHH with Y32A, M107W
notes: FLAG3-His6 tagged
B23: T0263018B11 S31V (VHH, name in Kabat numbering)
VHH: B1 VHH with S31V, M107W
notes: FLAG3-His6 tagged
B24: T0263018B11 G26K (VHH, name in Kabat numbering)
VHH: B1 VHH with G26K, M107W
notes: FLAG3-His6 tagged
B25: T0263018B11 A33N (VHH, name in Kabat numbering)
VHH: B1 VHH with A33N, M107W
notes: FLAG3-His6 tagged
B26: T0263018B11 S31A (VHH, name in Kabat numbering)
VHH: B1 VHH with S31A, M107W
notes: FLAG3-His6 tagged
B27: T0263018B11 T96W (VHH, name in Kabat numbering)
VHH: B1 VHH with T100W, M107W
notes: FLAG3-His6 tagged
B28: T0263018B11 S100L (VHH, name in Kabat numbering)
VHH: B1 VHH with S104L, M107W
notes: FLAG3-His6 tagged
B29: T0263018B11 G54V (VHH, name in Kabat numbering)
VHH: B1 VHH with G55V, M107W
notes: FLAG3-His6 tagged
B30: T0263018B11 A33H (VHH, name in Kabat numbering)
VHH: B1 VHH with A33H, M107W
notes: FLAG3-His6 tagged
B31: T0263018B11 T57D (VHH, name in Kabat numbering)
VHH: B1 VHH with T58D, M107W
notes: FLAG3-His6 tagged
B32: T0263018B11 S100A (VHH, name in Kabat numbering)
VHH: B1 VHH with S104A, M107W
notes: FLAG3-His6 tagged
B33: T0263018B11 F29Q (VHH, name in Kabat numbering)
VHH: B1 VHH with F29Q, M107W
notes: FLAG3-His6 tagged
B34: T0263018B11 T57E (VHH, name in Kabat numbering)
VHH: B1 VHH with T58E, M107W
notes: FLAG3-His6 tagged
B35: T0263018B11 T57G (VHH, name in Kabat numbering)
VHH: B1 VHH with T58G, M107W
notes: FLAG3-His6 tagged
B36: T0263018B11 F29I (VHH, name in Kabat numbering)
VHH: B1 VHH with F29I, M107W
notes: FLAG3-His6 tagged
B37: T0263018B11 S100W (VHH, name in Kabat numbering)
VHH: B1 VHH with S104W, M107W
notes: FLAG3-His6 tagged
B38: T0263018B11 S30M (VHH, name in Kabat numbering)
VHH: B1 VHH with S30M, M107W
notes: FLAG3-His6 tagged
B39: T0263018B11 F29P (VHH, name in Kabat numbering)
VHH: B1 VHH with F29P, M107W
notes: FLAG3-His6 tagged
B40: T0263018B11 T57M (VHH, name in Kabat numbering)
VHH: B1 VHH with T58M, M107W
notes: FLAG3-His6 tagged
B41: T0263018B11 T96G (VHH, name in Kabat numbering)
VHH: B1 VHH with T100G, M107W
notes: FLAG3-His6 tagged
B42: T0263018B11 A93T (VHH, name in Kabat numbering)
VHH: B1 VHH with A97T, M107W
notes: FLAG3-His6 tagged
B43: T0263018B11 D58A (VHH, name in Kabat numbering)
VHH: B1 VHH with D59A, M107W
notes: FLAG3-His6 tagged
B44: T0263018B11 S56E (VHH, name in Kabat numbering)
VHH: B1 VHH with S57E, M107W
notes: FLAG3-His6 tagged
B45: T0263018B11 T57R (VHH, name in Kabat numbering)
VHH: B1 VHH with T58R, M107W
notes: FLAG3-His6 tagged
B46: T0263018B11 T28G (VHH, name in Kabat numbering)
VHH: B1 VHH with T28G, M107W
notes: FLAG3-His6 tagged

Numbering of substitutions follows the chain as printed.

The target in the first experiment is T1, cyno FcRn/b2M (cyno, UniProt Q8SPV9 24-297; Q8SPW0 21-119, biotinylated).
T1 construct: bought recombinant biotinylated protein (Immunitrack ITF05 or ACRO FCM-C82W5); also called cFcRn; cFcRn/cb2M
T1 sequence (Q8SPV9 24-297 limits assumed, chain 1 of 2): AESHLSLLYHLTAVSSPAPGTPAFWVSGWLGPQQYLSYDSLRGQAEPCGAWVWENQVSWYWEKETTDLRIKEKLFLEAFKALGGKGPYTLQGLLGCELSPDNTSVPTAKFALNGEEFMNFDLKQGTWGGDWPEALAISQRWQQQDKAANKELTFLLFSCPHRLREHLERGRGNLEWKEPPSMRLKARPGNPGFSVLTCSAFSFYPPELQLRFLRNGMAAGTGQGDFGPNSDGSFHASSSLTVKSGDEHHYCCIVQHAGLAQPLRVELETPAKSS
T1 sequence (Q8SPW0 21-119 limits assumed, chain 2 of 2): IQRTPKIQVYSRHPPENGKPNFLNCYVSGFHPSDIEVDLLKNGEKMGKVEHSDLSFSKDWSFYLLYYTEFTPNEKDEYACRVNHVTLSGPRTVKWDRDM
Description: SPR off-rate; pH 7.4 vs pH 6.0.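 Also: surface plasmon resonance with diluted periplasmic extracts flowed over ligand surfaces, 120 s association and 600–3600 s dissociation at 25 °C, running buffer containing 150 mM NaCl.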
Description: (§1) All kinetic measurements have been performed on ProteOn XPR36 (BioRad Laboratories, Inc.), MASS-2 (Sierra sensors, Gmbh) or SPR-32 (Bruker Corporation). […] The phytip purified periplasmic extracts were diluted 1:10 in running buffer (CPA+150 mM NaCl+0.005% Tw20 at pH 5.5, pH 6.0 or pH 7.4) and injected over the ligand surfaces (association: 120 s at 45 μL/min; dissociation: 600s-3600 s at 45 μL/min). Experiments were carried out at 25° C.
Take B1: the “kd ratio pH 7.4/6.0” value was determined as 59.

As for B2, the “kd ratio pH 7.4/6.0” value stood at 58.

For B3, the “kd ratio pH 7.4/6.0” value was determined as 71.

Turning to B4, the “kd ratio pH 7.4/6.0” value worked out at 34.

Regarding B5, the “kd ratio pH 7.4/6.0” value amounted to 10.

In the case of B6, the “kd ratio pH 7.4/6.0” value stood at 41.

Take B7: the “kd ratio pH 7.4/6.0” value was 45.

On to B8, for which the “kd ratio pH 7.4/6.0” value is 45.

With B9, the “kd ratio pH 7.4/6.0” value came to 54.

On to B10, for which the “kd ratio pH 7.4/6.0” value was 116.

On to B11, for which the “kd ratio pH 7.4/6.0” value amounted to 69.

With B12, the “kd ratio pH 7.4/6.0” value was 41.

Take B13: the “kd ratio pH 7.4/6.0” value stood at 41.

Take B14: the “kd ratio pH 7.4/6.0” value was 40.

As to B15, the “kd ratio pH 7.4/6.0” value is 35.

Take B16: the “kd ratio pH 7.4/6.0” value came out at 36.

Consider B17, for which the “kd ratio pH 7.4/6.0” value is 39.

Turning to B18, the “kd ratio pH 7.4/6.0” value came out at 36.

Consider B19, for which the “kd ratio pH 7.4/6.0” value was 12.

With B20, the “kd ratio pH 7.4/6.0” value is 85.

B21: the “kd ratio pH 7.4/6.0” value was determined as 64.

As to B22, the “kd ratio pH 7.4/6.0” value came out at 70.

As for B23, the “kd ratio pH 7.4/6.0” value was 89.

On to B24, for which the “kd ratio pH 7.4/6.0” value turned out to be 101.

Consider B25, for which the “kd ratio pH 7.4/6.0” value was found to be 49.

For the molecule B26, the “kd ratio pH 7.4/6.0” value was 61.

In the case of B27, the “kd ratio pH 7.4/6.0” value is 54.

Regarding B28, the “kd ratio pH 7.4/6.0” value is 62.

For B29, the “kd ratio pH 7.4/6.0” value was found to be 31.

A further experiment concerns the target T1, cyno FcRn/b2M. The experiment in a line: SPR pH 6.0.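 Also: surface plasmon resonance kinetics at 25 °C, diluted periplasmic extracts injected over immobilized ligand surfaces, 120 s association then 600–3600 s dissociation, running buffer containing 150 mM NaCl.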
Description: as §1
Regarding B30, the koff amounted to 0.00077 s⁻¹.

In the case of B31, the koff was 0.00063 s⁻¹.

Turning to B32, the koff was found to be 0.00021 s⁻¹.

B33 registered a koff of 0.0017 s⁻¹.

Molecule B34 showed an off-rate constant (koff) of 0.00055 s⁻¹.

The molecule B35 returned a koff of 0.0011 s⁻¹.

In turn, B36 displayed a koff of 0.0015 s⁻¹.

As for B37, the koff came out at 0.00029 s⁻¹.

In turn, B38 came in with a koff of 0.00069 s⁻¹.

B39 registered a koff of 0.0019 s⁻¹.

For B40, the koff was found to be 0.0007 s⁻¹.

As to B41, the off-rate (koff) was 0.0084 s⁻¹.

On to B42, for which the off-rate (koff) worked out at 0.0019 s⁻¹.

For the molecule B43, the koff was found to be 0.0026 s⁻¹.

As for B44, the koff turned out to be 0.0019 s⁻¹.

As for B45, the koff is 0.00071 s⁻¹.

Take B46: the koff came out at 0.0002 s⁻¹.

The next experiment deals with T2, human FcRn/b2M (human, UniProt P61769 21-119, biotinylated).
T2 construct: bought recombinant biotinylated protein (ACRO FCM-H82W4 or Immunitrack ITF01); also called hFcRn; hFcRn/hb2M
T2 sequence (chain, as listed by the source limits assumed, chain 1 of 2): as the sequence (Q8SPV9 24-297 limits assumed, chain 1 of 2) above, with D39N, Q44E, S99G, G189S, N190S, M217L, T269S counted along it
T2 sequence (P61769 21-119 limits assumed, chain 2 of 2): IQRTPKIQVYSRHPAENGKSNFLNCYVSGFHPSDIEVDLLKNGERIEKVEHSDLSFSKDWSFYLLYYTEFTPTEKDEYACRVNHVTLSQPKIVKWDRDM
The experiment in a line: SPR pH 6.0.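 Also: surface plasmon resonance kinetics at 25 °C, diluted periplasmic extracts injected over immobilized ligand surfaces, 120 s association then 600–3600 s dissociation, running buffer containing 150 mM NaCl.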
Description: as §1
Turning to B30, the koff was found to be 0.00076 s⁻¹.

With B31, the koff is 0.00073 s⁻¹.

In the case of B32, the koff was 0.00025 s⁻¹.

The molecule B33 yielded a koff of 0.0021 s⁻¹.

In the case of B34, the koff came out at 0.00076 s⁻¹.

The molecule B35 came in with a koff of 0.0013 s⁻¹.

In turn, B37 had a koff of 0.00062 s⁻¹.

B38 came in with an off-rate (koff) of 0.00074 s⁻¹.

For B39, the koff turned out to be 0.0026 s⁻¹.

B40 registered a koff of 0.00098 s⁻¹.

B41 came in with a koff of 0.014 s⁻¹.

B42 had a koff of 0.0025 s⁻¹.

Turning to B43, the koff turned out to be 0.0089 s⁻¹.

The molecule B44 had a dissociation rate constant (koff) of 0.0026 s⁻¹.

B45 returned a koff of 0.00086 s⁻¹.

For B46, the koff is 0.00075 s⁻¹.

The next experiment has as its target T1, cyno FcRn/b2M. The experiment in a line: SPR pH 7.4.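 Also: surface plasmon resonance kinetics, periplasmic extracts diluted 1:10 flowed over immobilized target at 25 °C, 120 s association then 600–3600 s dissociation, buffer with 150 mM NaCl.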
Description: as §1
B30 displayed a koff of 0.037 s⁻¹.

Regarding B31, the koff is 0.026 s⁻¹.

Take B32: the koff is 0.0099 s⁻¹.

Turning to B33, the dissociation rate constant (koff) was 0.088 s⁻¹.

Consider B34, for which the koff is 0.024 s⁻¹.

Molecule B35 showed a koff of 0.04 s⁻¹.

In turn, B36 showed a koff of 0.083 s⁻¹.

Consider B37, for which the off-rate (koff) was found to be 0.015 s⁻¹.

Molecule B38 returned a koff of 0.022 s⁻¹.

As to B40, the koff amounted to 0.027 s⁻¹.

With B41, the koff is 0.21 s⁻¹.

As to B42, the koff is 0.12 s⁻¹.

On to B43, for which the koff is 0.036 s⁻¹.

Molecule B44 had a koff of 0.1 s⁻¹.

With B45, the koff was 0.026 s⁻¹.

B46: the koff is 0.028 s⁻¹.
